Publication PMC3167620
Like-named read-outs stand apart in the source and are kept apart here.

Key:
[1] = target: T1, G4R1/RHAU (G4 Resolvase 1) (human, UniProt Q9H2U1 1-1008); assay: competition
T1 sequence: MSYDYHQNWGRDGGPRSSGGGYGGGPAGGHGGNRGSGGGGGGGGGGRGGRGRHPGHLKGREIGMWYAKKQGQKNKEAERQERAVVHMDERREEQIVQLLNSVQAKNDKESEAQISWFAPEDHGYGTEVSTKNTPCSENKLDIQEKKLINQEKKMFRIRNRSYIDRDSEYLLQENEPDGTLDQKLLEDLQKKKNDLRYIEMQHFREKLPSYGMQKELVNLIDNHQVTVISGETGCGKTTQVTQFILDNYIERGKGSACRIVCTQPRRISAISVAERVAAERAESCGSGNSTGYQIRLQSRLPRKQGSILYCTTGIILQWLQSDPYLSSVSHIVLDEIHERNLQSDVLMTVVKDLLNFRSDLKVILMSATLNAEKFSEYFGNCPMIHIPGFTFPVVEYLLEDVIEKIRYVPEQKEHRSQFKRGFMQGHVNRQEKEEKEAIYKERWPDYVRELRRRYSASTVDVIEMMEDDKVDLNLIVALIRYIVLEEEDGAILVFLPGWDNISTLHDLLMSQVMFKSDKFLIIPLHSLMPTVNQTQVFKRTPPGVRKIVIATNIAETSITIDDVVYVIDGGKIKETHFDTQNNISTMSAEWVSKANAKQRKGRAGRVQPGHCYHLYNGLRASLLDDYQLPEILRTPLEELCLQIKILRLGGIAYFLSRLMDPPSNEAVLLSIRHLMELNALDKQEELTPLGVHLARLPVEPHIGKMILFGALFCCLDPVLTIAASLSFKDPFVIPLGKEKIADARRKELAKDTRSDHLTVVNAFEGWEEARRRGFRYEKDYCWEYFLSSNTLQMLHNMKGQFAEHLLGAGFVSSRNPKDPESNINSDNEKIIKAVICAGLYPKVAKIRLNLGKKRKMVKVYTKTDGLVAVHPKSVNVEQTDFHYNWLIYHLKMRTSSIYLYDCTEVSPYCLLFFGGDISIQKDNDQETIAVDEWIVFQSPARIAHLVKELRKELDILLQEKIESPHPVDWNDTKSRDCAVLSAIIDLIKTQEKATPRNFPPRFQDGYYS

[2] = target: T1, G4R1/RHAU (G4 Resolvase 1); assay: EMSA
[3] = target: T1, G4R1/RHAU (G4 Resolvase 1); assay: competition; remark: listed apart in the source
[4] = target: T1, G4R1/RHAU (G4 Resolvase 1); assay: EMSA; remark: listed apart in the source
[5] = target: T2, G4R1/RHAU E335A (Walker B, ATPase-dead) (human, UniProt Q9H2U1 1-1008, E335A); assay: EMSA
T2 sequence: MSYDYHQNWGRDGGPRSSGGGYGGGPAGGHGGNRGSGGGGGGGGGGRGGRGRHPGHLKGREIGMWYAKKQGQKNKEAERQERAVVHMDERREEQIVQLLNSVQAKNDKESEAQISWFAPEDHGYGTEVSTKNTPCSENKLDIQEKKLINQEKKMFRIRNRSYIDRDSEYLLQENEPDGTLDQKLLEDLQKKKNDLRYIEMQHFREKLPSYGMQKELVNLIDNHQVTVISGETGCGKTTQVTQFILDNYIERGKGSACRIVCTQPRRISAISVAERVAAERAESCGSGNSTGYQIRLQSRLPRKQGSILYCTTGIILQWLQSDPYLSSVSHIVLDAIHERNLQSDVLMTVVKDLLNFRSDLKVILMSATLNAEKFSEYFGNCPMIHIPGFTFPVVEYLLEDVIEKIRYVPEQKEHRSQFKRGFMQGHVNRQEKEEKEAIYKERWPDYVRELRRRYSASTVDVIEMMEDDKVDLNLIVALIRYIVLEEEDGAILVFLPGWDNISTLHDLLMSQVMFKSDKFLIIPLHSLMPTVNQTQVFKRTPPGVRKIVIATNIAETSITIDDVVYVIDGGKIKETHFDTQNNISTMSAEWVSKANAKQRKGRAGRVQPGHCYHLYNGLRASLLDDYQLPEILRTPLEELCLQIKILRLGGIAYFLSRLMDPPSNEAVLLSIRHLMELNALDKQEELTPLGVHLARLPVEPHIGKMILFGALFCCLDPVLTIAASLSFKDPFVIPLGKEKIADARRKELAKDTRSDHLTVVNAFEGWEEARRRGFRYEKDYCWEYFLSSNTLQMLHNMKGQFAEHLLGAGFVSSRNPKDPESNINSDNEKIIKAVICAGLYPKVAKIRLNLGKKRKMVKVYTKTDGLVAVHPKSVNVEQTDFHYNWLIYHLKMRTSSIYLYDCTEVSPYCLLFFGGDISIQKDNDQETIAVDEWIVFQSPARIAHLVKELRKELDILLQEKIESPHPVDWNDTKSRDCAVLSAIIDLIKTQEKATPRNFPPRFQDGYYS

[6] = target: T1, G4R1/RHAU (G4 Resolvase 1); assay: EMSA; remark: listed apart in the source
[7] = target: T1, G4R1/RHAU (G4 Resolvase 1); assay: EMSA; remark: listed apart in the source

For AAAGTGATGGTGGTGGGGGAAGGATTTTCGAAC (structured_DNA) [Z33 tetramolecular G4-DNA], the IC50 [1] was 1 competitor:substrate molar ratio.

In the case of TTTTTTTTTTGGGTGGGGGGGGCGGGGGAGGCCGGGGTTTTTTTTTT (structured_DNA) [Poly T Zic1 DNA 47-mer, unimolecular G4], the Kd [2] is reported as 2.4 ± 0.2 pM.

B1: c-Myc DNA 51-mer, unimolecular G4 (structured_DNA)
DNA: GGCCGCTTATGGGGAGGGTGGGGAGGGTGGGGAAGGTGGGGAGGAGACTCA
B1 was tested, and the Kd [2] was 4.4 ± 0.6 pM and the IC50 [3] was 0.06 competitor:substrate molar ratio.

AGAAGAGAGAGAGTGAGAGAGACGAGAGAGGCCGAGAAGAGAGAGAG (ssDNA) [Scrambled Zic1 DNA 47-mer] was tested, and the Kd [4] was > 300 pM.

For AAAAAAAAAAGGGTGGGGGGGCGGGGGAGGCCGGGGAAAAAAAAAA (structured_DNA) [Poly A Zic1 DNA 47-mer, unimolecular G4], the Kd [2] was 5.7 ± 0.2 pM, the binding result [5] was “binds” and the Kd [6] was 5 pM.

AAAAAAAAAAGGGTGGGGGGGCGGGGGAGGCCGGGGAAAAAAAAAA (ssDNA, guanine N7 methylation (DMS)) [Poly A Zic1 47-mer, dimethyl sulfate treated]: no binding [7].
